Laboratory results taken from the nanobody polyreactivity screen of Harvey et al. (2022).

Assay: yeast display, Sf9 membrane polyspecificity reagent, FACS + sequencing; frameworks hold sequencing errors
Procedure, shortened: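 Synthetic nanobody libraries on Saccharomyces cerevisiae BJ5465 were galactose-induced for 36–48 hours, stained 1 hour at 4 °C with 10% biotinylated, detergent-solubilized Sf9 membrane reagent and enriched on streptavidin microbeads. FACS then separated cells into low and high (top ~1%) gates by anti-HA (expression) and streptavidin (reagent binding) fluorescence. Genes were colony-PCR amplified, MiSeq 2 × 250 sequenced and CDR-length filtered. A clone's polyreactivity label is that of its gate of origin.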

Sequence | polyreactivity (PSR sort gate)
QVQLVESGGGLVQAGGSLRLSCAASGSTFRLNAMGWYRQARGKEWEFVAAISSRGGSTYYADSVKGRFTISRDNAKNTDYLQMNSLKPEDTAVYYCKAVRSKLIENDYWGQGTQVTVSS | high polyreactivity
QVHLQESGGGLVQAGGSLRLSCAASGTIFASQHMGWYRQAPGKERELVASIAKGGTTYYADSVKGRFTISRGNAKNTEYLQMNRLKPEDTAVYYCAARGWGYRRTYVYAWYDYWGQGTQVTVSS | high polyreactivity
QVQLVESGGGLVQAGGSLRLSCAASGRISVYNAMGWYRQAPGKERELVAAISRGSTNYADSVKGRFTISRDNAKNTVYLQMNSLKPEDTAVYYCAARSVSFPWRRYAGYDYWGQGTQVTVSS | high polyreactivity
QVQLVESGGGLVQAGGSLRLSCAASGFTFYIYAMGWDRQAPGKERELVAAIRASGGSTYYADSVKGRFTISRDSAKNTVYFLMNSLNPDDTAVYYCAADYKVYASWYYAYTFYYWGQGTQVTVSS | low polyreactivity
QVQVVESGGGLVQAGGSLRLSCAASGFTFYPNAMGWYRQAPGKERELVATITGSGGSTNYADSVKGRFPISRDTAQNTVYLQMNSLKPEDTAVYYCAADYAVYSFTDFNYWGQGTQVTVSS | high polyreactivity
QLQLVESGGGLVQAGGSLRLSCASSGFTLTYAMGWDRQAPGKERELVAAISSSGVRTYYADSVKGRFTISRDNAKNTVYLQKNSLKPEDTALYYCNAFIHGSRSYISDYYWGQGTQVTVSS | high polyreactivity
QDQLVESGGGLDQAGGRLRLSCAASGFTFGRNAMGWYRPAPGKERELDAASSWSGGSTYYADSVKGRFTISRDYAKNTVYVQMNSLKPEDTAVYYCNKRSRLGRGNRDYWGQGTQVTVSS | high polyreactivity
QVHLLESGGGLLQAGGSLLISCAAAGRTFGQNAMGWSRQAPGKARELVASIRSGGITDYADSVKGRYTISRDNAKYSVYLQMNSLKPEDTAVYYCNAEGVWWSTRYDSWGQGTQVTVSS | low polyreactivity
QVQLVESGGGLVQAGGSLRLSCAASGRTFQGYSMGWYRQAPGKERELVAAISRSGGRTYYADSVKGRFTISRDNAKNTVYLQMNSLKPEDTAVYYCATDAFRDYGYWGQGTQVTVSS | high polyreactivity
QVQLVESGGGLVQAGGSLRLSCAASGRIFSVYTMRWYRQAPGKERELVATISSGGRTNYADSVKGRFTISRDNAKNTVYLQMNSLKPEDTAVYYCAADWVYPPGLKDSVHFGEYDYWGQGTQVTVSS | low polyreactivity
QVQLVESAGGLVQAGGSLRLSCAASGFIFSRNAMGWYRQAPGKERELVAVISTSGGSTYYADSVKGRFTISRDNAKNTVYLQMNSLKPEDTAVYYCAARRTRGYEYWGKGTQVTVSS | high polyreactivity
QVQLVESGGGLVQAGGSLRLSCAASGRIFRGYAMGWYRQAPGKERELVAAIDTDTGITYYADSVKGRFTISRDNAKNTVYLQMNSLKPEDTAVYYCAAETYYAVSTGYDFDYWGQGTQVTVSS | high polyreactivity
QVQLVESGGGLVQAGGSLRLSSSASGSIFASNAMGWYRQEPGKERELVAAINSGDSTNYADSVKGRFTISRDNAKNTVYLQMNSLKPEDTAVYYCNAEYRYYQKTPVLYTNVEYDYWGQGTQVTVSS | low polyreactivity
QVQLVESGGGLVQAGGRLRLSCAASGFTQGSYAMGWHRQAPGKEREFVAGITDSGGSTYYADSVKGRYTISRDNAKNTVYLQMNSLKPEDTAVYDCNADFAPWDKQDYPYDYDYWGQGTQVTVSS | low polyreactivity
QVQLVESGGGLVQAGGSLRLSCAASGFTFYHYAMGWYRQAPGKERELVAAISRSGGSTYYADSVKGRFTISRDNAKNTVYLQMNSLKPEDTAVYYCSKVLRAKNSFDYWGQGTQVTVSS | high polyreactivity
QVQLLESGGGLVQAGCSLRLSCAASGFIFSYAMGWYRQAPGKERQLVAAISKSGCRTYYADSVKGRFTISRDNAKNTVYLQMNSMKPEDTEVYYCAVRDLHLSNARYNFWGQGNQVTVSS | high polyreactivity
QVQLVESGGGLVQAGGSLRLSWAASGRTFGVYAMGWYRQAPGTERELVATITRSGGRTYYADSVKGRFTLSRDTAKNTVYLQMNSLKPEATAVYYCNAGHGSLRYNYWGQGTQVTVSS | high polyreactivity
QGQLVESGGGLVQAGGSLRLSCAASGSTVSYNAMGCSRPARGKERALVAAISSGGRTYYADSVKGRFTISRDNAKKTVYFQMNSLKPEDTAVYYCAVYETHWGYWYELDYWGQGTQVTVSS | high polyreactivity
QVQLVESGGGLVQAGGSLRLSCAASGFTFRRYTMGWYRQAPGKERELVAAISGRGGRTYYADSVKGRFTISRDNSKNTVYLQMNSLNPEDTAVYYCAADTQYWQSSKYDYWGQGTQVTVSS | high polyreactivity
QVQLVESGGGLVQAGGSLRLSCAASGRIFWYYAVGWYRQAPGKERELVARISSSGGSTYYADSVKGRFTISRDNANNTVYLQMNSLKPEDTAVYYCAKERYSGSSRYPMDYWGQGTQVTVSS | high polyreactivity
QVQLVESGGGLVQAGGSLRLTCAASGFTFRSYAMGWYRQAPGKEREWVAVISSSGGSTYYADSVKARFTISRDNAKNTVYLQMNSLKPEDTAVYYCNRRPATRAYLYDYWGQGTQVTGSS | high polyreactivity
QVQLVESGGGLVQAGGSLRLSCAASGRIFVVYAMGWYRQAPGKERELVAAITYGGGSTHYADSVKGRFTISRDNAMNTVYLQMISLKPEDTAVYYCAADLFYHSYGYEYWGQGTQVTVSS | low polyreactivity

Sequence | polyreactivity (PSR sort gate)
QVQLVESGGGLDQAGGSLRLSCAASGRIFVIYAMGWYRQAPGKERELVAVINDDGSTNYADSVKGRFTISRDNAKNTVYLQMNSLKPEDTAVYYCAAESARYLTFEFDYWGQSTQVTVSS | low polyreactivity
QVQLVESGGGLVQAGGSLRLSCAASGSTFYKYAMGWYRQAPGKERELVASISRSGGSTSYADSVKGRFTISRDNAKNTVYLHMNSLIPEDTAVYYCAATWRQHPGSMGYWGQGTQVTVSS | high polyreactivity
QVQLVESGGGLVQAGGSLRLSCAASGIILVNNAMGWYRQAPGTEREFVAAIRYSAGSTYYADSVKGRFTISRDTAKNTVYLQMNSLKAEDTAVYYCARRWKGGWYEYGYWGQGTQVTVAS | high polyreactivity
QVQLVESGGGLVQAGGSLRLSCAASGRISQHNAMGWYRQAPGKERELVAAISWIGTSTYYADSVKGRFTISRDNAKNTVYLQMNSLKPEDTAVYYGWSTRGPPYIYLNYNYWGQGTQVTVSS | low polyreactivity
QVQLQESGGGLVQAGGSLRLSCAASGTISPLPAMGWYRQAPGKEREFVAGIDTGAITNYADSVKGRFTISRDNAKNTVYLQMNSLKPEDTAVYYCAVFPAAYDYDERYYTYWGQGTQVTVSS | low polyreactivity
QVQLVESGGGLVQAGGRLRLTCAASGSIFGSYAMGWYRQEPGIERELVAAIRGRGGNTYYADSVKGRFTISRDNAKNTVYLQMNSLKPQDTAVYYCAAQSFAQYGWRYGYWGQGTQVTLSS | high polyreactivity
QVQLVESGGGLVQARGSLRLSCAASGSIFGSYAMGWYRQAPGKDSELVADISCGGSTNYADSVKGRFTISRDNAKNTVYLQMNSLKPDDTAVYYCNADDPAGYLYLWGSWLESDYWGQGTQVTVSS | low polyreactivity
QVQLVESGGGLVQAGGSLRLSCAASGSIFYFNAMGWYRQAPGKERELVAAINWRGDRTYYADSVKRRFTISRDNAKNTVYLQMNSLKPEDTAVYYCNAVRVHAYSTGEYGYWGQGTQVTVSS | high polyreactivity
QVQLVESGGGLVQAGGSLRLSCAASGSTFGWYAMGWYRQAPGKERELVASITWDGGRTYYAHSVKGRFTISRDNAKNTVYLQMNSLKPEDTAVYYCAARGVSSPLNYWGQGSQVTVSS | low polyreactivity
QVQLVESGGGLVQAGGSLRLSCAASGRIFQTYAMGWYRQAPGKERELVAAISSRGRTYYADSVKGRFTISRDNAKNTVYLQMNSLKPGDTAVYYCAARDWSHRPRGYDYWGQGTKVTVSS | high polyreactivity
QVQLVESGGGLVQAGGSLRLSCAASGLTINPNAMGWYRPAPGKERELVAAIDWSGGSTYCADSVKGRFTISRDNAKNTVYLQMNSLKPEDTAVYYSAADPPDRLFLYDYWGQGTQVTVSS | low polyreactivity
QVQLVESGGALDQAGGSLRLSCAASGSTFVVNAMGWYIQAPGKERELVAGITTSGGSTYYADSVKGRFTISRDNAKTTVYLQMNSLKPEDTAVYYCAARRWPYVYRFRAYSGFDYWGQGTHVTVSS | low polyreactivity
QVQLVDSGGGLVQAGGSLRLSCDASGSTFLYYAMGWYRQAPGKERELVARITSRFGRTYYADSVKGRFTISRDNAKNTVYLQMNSLKPEDTAVYYCAAYPDYSYYYWGHGTQVTVSS | high polyreactivity
QVQLVESGGGLVQAGGSLRLSCAASGSISSKNAMGWYRQAPGKEREFVAVISGTGGSTYYADSVKGRFTISRDNAKNTVYLQMNSLKPEDTAVYYCAAAASSIVSYGYTWTYGYWGQGTQVTVSS | low polyreactivity
QVQLVESGGGLVQAGGSLRLSCAASGRTFVVYAMGWYRQAPGKERELVAVIRVIGGSTNYADSVKRRFTISRDNAKNTVYLQMYSLKPEDTAVYYCAAAWSHSRWDTHDYWGQGTQVNVSS | low polyreactivity
QVQHVESGGGLVQAGGSLRLSCAASGRTFNGYAMGWYRQAPGKERELVAAIRSTTGSTYYADSVKGRFTISRDNAKNTVYLQMNSLKPEETAVYYCAAAYPFYADMDYCGQGTQVTVSS | low polyreactivity
QVQLVESGGGLVQAGGSLRLSCAASGRTLRYYDMGWYRQEPGKEREIVAAISWSGVSTYYADSVKGRFTISRDNAKNTVYLQMNSMQPEDTAVYYCAVGYVLTGVFEARFDYWGQGTLVTVSS | high polyreactivity
QVQLVDSGGCLVQAGGSLRLSCAASGRTFYRYAMGWYRQAPGKEREFVARITTSGGSTYYADSVKGRFTISRDNAKNTVYLKMNSLKPEDTEVYYCNARGVTYAFFRFDYWGQGTQVTVSS | high polyreactivity
QVQLVESGGGLVQAGGSLRLSCAASGINFWNYAMGWYRQAPGKERELVAAISSSSGRTYYADSVKGRFTISRDNAKNTVYLQMNSLKPEDTAVYYCAARRSFARRFKNSMEYWGQGTQVTVSS | high polyreactivity
QVQLVESGGGLVQAGGSLRLSCAASGIIFRDYDMGWYRQAPGKERELVAAITWDGGSTYYADSVKGRFTISRDNAKNTVYLQMNSLTPEDTAVYYCAADSRYHYYVGYYYWGQGTQVTVSS | high polyreactivity
QVQLVESGGGLVQAGGSLRLSCAASGFTFYGYTMGWYRQAPGKEREVVAAITSDGDTNYADSVKGRFTISRDNAKNNVYLQMNSLIPEDTAVYYCNADPGFFFYWWTGDYWGQGTQVTVSS | low polyreactivity
